The assay addresses T1, recombinant EcPyAMA1 (P. yoelii YM AMA1 residues 59-479 with a C-terminal histidine tag, E. coli, refolded) (Plasmodium yoelii YM).
T1 construct: not shown: C-terminal histidine tag
T1 chain: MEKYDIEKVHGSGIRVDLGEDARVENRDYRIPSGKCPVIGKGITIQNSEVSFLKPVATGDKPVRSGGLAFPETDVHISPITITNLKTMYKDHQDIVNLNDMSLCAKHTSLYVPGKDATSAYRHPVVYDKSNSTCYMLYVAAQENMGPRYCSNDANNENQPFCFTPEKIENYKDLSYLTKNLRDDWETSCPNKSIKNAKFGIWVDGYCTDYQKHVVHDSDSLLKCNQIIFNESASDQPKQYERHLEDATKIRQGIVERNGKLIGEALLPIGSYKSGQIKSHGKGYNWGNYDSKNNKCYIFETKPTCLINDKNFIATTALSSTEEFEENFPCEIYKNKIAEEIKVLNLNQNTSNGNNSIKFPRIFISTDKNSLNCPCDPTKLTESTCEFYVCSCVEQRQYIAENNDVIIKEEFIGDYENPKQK
Nature of the assay: binding of RON2L peptide to PyAMA1, FIG. 3E.

Ends that are not written are not given here.

The source of these data is US20160158332A1 (US Dept. of Health and Human Services, published 2016).

B1: PyRON2L peptide with the two cysteines mutated to alanines (Cys 1856 and 1868 to Ala) (peptide)
peptide: DITQHATDIGMGPSTSAYTSLLPPPKSIAIQQTVKTVLTNSTLASMK-NH2
notes: they are the two cysteines of the peptide; also called RON2Lc/a; c/a
Take B1: the binding result is “no binding”.
